One assay has as its target T1, human B7H3 (Homo sapiens, UniProt Q5ZPR3).
T1 construct: MCF-7 cells expressing human full-length B7H3; host or cells: MCF-7
T1 sequence (Q5ZPR3 29-534): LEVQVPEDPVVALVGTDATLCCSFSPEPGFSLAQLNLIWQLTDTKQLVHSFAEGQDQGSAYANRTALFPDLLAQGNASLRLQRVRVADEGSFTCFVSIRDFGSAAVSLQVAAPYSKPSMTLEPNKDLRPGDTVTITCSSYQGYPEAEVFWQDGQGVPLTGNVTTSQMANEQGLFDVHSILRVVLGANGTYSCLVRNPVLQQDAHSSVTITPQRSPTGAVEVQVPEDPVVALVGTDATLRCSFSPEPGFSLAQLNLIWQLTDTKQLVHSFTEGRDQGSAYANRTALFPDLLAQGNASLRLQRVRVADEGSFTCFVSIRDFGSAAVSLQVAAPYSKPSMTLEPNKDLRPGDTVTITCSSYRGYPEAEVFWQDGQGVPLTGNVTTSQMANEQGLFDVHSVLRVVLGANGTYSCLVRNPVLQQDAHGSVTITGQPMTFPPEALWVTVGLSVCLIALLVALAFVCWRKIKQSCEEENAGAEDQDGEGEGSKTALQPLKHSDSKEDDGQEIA
Kind of assay: FACS binding to human B7H3-expressing cells MCF-7. The protocol: FACS was used to detect the binding of antibodies to human B7H3. This method allows quantitative analysis and identification of specific molecules expressed on the surface of living cells. Unlabeled cells were used as a control to set a threshold before the assay, and the percentage change for each group that exceeded the fluorescence intensity threshold was analyzed. MCF-7 cells expressing human full-length B7H3 (1×10^5 cells/well) were incubated with various concentrations of antibodies (3.16-fold serially diluted with 1×DPBS/1% BSA from 50 nM to 0.0005 nM) in a volume of 100 μL/well in a refrigerator set to 4° C. for 1 h. Anti-human B7H3 reference antibody enoblituzumab (MacroGeneics) was used as a positive control. Human IgG1 isotype antibody was used as a negative control. After washing the cells with 1×DPBS/1% BSA, Alexa 647 goat anti-human antibody (diluted in a 1:500 ratio in 1×DPBS/1% BSA) was added. The cells were incubated in a refrigerator set to 4° C. for 0.5 h in the dark. The mean fluorescence intensity (MFI) of the cells was measured by a flow cytometry and analyzed by FlowJo. EC50 values were calculated by four-parameter non-linear regression analysis using GraphPad Prism 7 software.
For orientation: A flow cytometer gives signals particle by particle.

In assay [1] the test system is cynomolgus monkey B7H3. In words: FACS binding to cynomolgus monkey B7H3-transfected stable cell pool. The protocol:
A cell pool expressing cynomolgus monkey B7H3 was generated. Briefly, FlipinCHO cells were transfected with a pcDNA5/pOG44 expression vector containing full-length cynomolgus monkey B7H3 using Lipofectamine 2000 transfection kit (Invitrogen, 11668027) according to the manufacturer's protocol. At 48 h post-transfection, the cells were subcultured into a selective medium (F12 containing 10% FBS and 600 μg/mL hygromycin B) in a T75 flask. After two or three passages of selection, a cell pool stably and highly expressing cynomolgus monkey B7H3 (WBP3XX088-FlpinCHO.cProl.pool) was obtained by hygromycin B selection and BD FACSMelody™ cell sorting.
FACS was used to detect the binding of antibodies to cynomolgus monkey B7H3. FlpinCHO cells were transfected with cynomolgus monkey B7H3 (W3XX088-FlpinCHO.cProl.pool) (1×10^5 cells/well), and the transfected cells were incubated with various concentrations of antibodies (3.16-fold serially diluted with 1×DPBS/1% BSA from 50 nM to 0.0005 nM) in a volume of 100 μL/well in a refrigerator set to 4° C. for 1 h. Anti-human B7H3 reference antibody enoblituzumab (MacroGeneics) was used as a positive control. […] The mean fluorescence intensity (MFI) of the cells was measured by a flow cytometry and analyzed by FlowJo. EC50 values were calculated by four-parameter non-linear regression analysis using GraphPad Prism 7 software.

The target of a further assay is T2, human 2IgB7H3 (Homo sapiens, UniProt Q5ZPR3).
T2 construct: His tag; purchased ACRO (ACROBiosystems) B73-H52E2
T2 sequence (Q5ZPR3 29-316 isoform Q5ZPR3-2 limits assumed): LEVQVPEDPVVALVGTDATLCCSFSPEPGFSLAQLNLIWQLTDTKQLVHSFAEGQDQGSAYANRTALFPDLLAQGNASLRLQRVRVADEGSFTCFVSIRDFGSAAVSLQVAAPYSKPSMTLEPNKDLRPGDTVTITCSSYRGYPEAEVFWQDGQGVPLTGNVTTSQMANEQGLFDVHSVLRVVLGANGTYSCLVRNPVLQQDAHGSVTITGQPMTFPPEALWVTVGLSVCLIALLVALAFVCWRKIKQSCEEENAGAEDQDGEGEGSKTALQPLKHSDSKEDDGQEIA
Kind of assay: SPR binding affinity for human 2IgB7H3 (Biacore 8K). The note with it: analyte human 2IgB7H3. The method, then:
(§1) The affinity of antibodies for human 2IgB7H3 was determined using surface plasmon resonance (SPR). The affinity of antibodies for human 2IgB7H3 was determined by Biacore 8K. An activator was prepared by mixing 400 mM EDC and 100 mM NHS (GE) immediately prior to injection into the channel. The CM5 sensor chip was activated for 420 seconds with the activator. Goat anti-human Fc IgG (30 μg/mL in 10 mM NaAc, pH 4.5) was then injected into the channel at a flow rate of 10 μL/min for 420 seconds. The chip was deactivated by 1 M ethanolamine hydrochloric acid. The antibodies diluted in running buffer (1×HBS-EP+) were injected into the channel at a flow rate of 10 μL/min for 30 seconds. Seven concentrations (500 nM, 250 nM, 125 nM, 62.5 nM, 31.25 nM, 15.625 nM, and 7.813 nM) of analyte human 2IgB7H3 were injected sequentially into the channel at a flow rate of 30 μL/min for an association phase of 120 seconds, followed by dissociation of 300 seconds. Glycine (10 mM, pH 1.5) was injected as regeneration buffer after the dissociation phase.
The sensorgrams for the reference channel and the buffer channel were subtracted from the test sensorgrams. The experimental data were fitted with a 1:1 binding model. The molecular weight of the human 2IgB7H3 used in the calculation was 25.2 kDa.
(§2) The experimental data were fitted by a 1:1 binding model bundled with the Biacore 8K evaluation software.
(In general: Surface plasmon resonance follows binding to a sensor surface in real time, without labels.)

Assay [2] has as its system cynomolgus monkey B7H3. Kind of assay: SPR binding affinity for cynomolgus monkey B7H3 (Biacore 8K). The note with it: analyte cynomolgus monkey B7H3. The method, then:
as §1, with “cynomolgus monkey B7H3” for “human 2IgB7H3”, “Fe” for “Fc”, “Seven concentrations (500 nM, 250 nM, 125 nM, 62.5 nM, 31.25 nM, 15.625 nM, and 7.813 nM) of analyte human 2IgB7H3 were injected sequentially into the channel at a flow rate of 30 μL/min for an association phase of 120 seconds, followed by dissociation of 300 seconds.” left out
The sensorgrams for the reference channel and the buffer channel were subtracted from the test sensorgrams. The experimental data for 6 analyte concentrations (50 nM, 25 nM, 12.5 nM, 6.25 nM, 3.125 nM, and 1.563 nM) were fitted with a 1:1 binding model. The molecular weight of the cynomolgus monkey B7H3 used in the calculation was 49 kDa.
as §2

For another assay, the target named is T3, human 4IgB7H3 (Homo sapiens, UniProt Q5ZPR3).
T3 construct: Uniprot ID: Q5ZPR3, amino acids 29-461; 6xHis (C); made in house; host or cells: Expi293F
T3 sequence (Q5ZPR3 29-461): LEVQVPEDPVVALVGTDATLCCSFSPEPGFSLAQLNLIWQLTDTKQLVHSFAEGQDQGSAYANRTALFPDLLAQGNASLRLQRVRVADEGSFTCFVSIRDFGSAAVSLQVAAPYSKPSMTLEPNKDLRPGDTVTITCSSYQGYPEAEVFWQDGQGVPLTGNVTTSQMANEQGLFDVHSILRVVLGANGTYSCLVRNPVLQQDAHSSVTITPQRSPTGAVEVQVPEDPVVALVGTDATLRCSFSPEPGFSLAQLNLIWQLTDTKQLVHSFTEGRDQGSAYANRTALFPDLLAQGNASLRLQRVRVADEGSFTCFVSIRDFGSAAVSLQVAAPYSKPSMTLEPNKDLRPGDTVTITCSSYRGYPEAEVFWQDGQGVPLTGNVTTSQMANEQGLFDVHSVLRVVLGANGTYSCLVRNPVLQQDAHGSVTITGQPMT
In words: SPR binding affinity for human 4IgB7H3 (Biacore 8K). The note with it: analyte human 4IgB7H3. The protocol:
The affinity of antibodies for human 4IgB7H3 was determined using surface plasmon resonance (SPR). The affinity of antibodies for human 4IgB7H3 was determined by Biacore 8K. An activator was prepared by mixing 400 mM EDC and 100 mM NHS (GE) immediately prior to injection into the channel. The CM5 sensor chip was activated for 420 seconds with the activator. Goat anti-human Fc IgG (30 μg/mL in 10 mM NaAc, pH 4.5) was then injected into the channel at a flow rate of 10 μL/min for 420 seconds. The chip was deactivated by 1 M ethanolamine hydrochloric acid. The antibodies diluted in running buffer (1×HBS-EP+) were injected into the channel at a flow rate of 10 μL/min for 30 seconds. Seven concentrations (100 nM, 50 nM, 25 nM, 12.5 nM, 6.25 nM, […], and 1.563 nM) of analyte human 4IgB7H3 were injected sequentially into the channel at a flow rate of 30 μL/min for an association phase of 180 seconds, followed by dissociation of 3600 seconds. Glycine (10 mM, pH 1.5) was injected as regeneration buffer after the dissociation phase.
The sensorgrams for the reference channel and the buffer channel were subtracted from the test sensorgrams. The experimental data were fitted with a 1:1 binding model. The molecular weight of the human 4IgB7H3 used in the calculation was 47.8 kDa.
as §2

Assay [3] has as its system MCF-7 cells expressing human full-length B7H3. Kind of assay: Internalization test (HCS) on MCF-7. The format is cell-based. Conditions: MCF-7, HCS. The method, then:
Antibody internalization was determined by operetta CLS (PerkinElmer), a high-content imaging and analysis system that can collect and analyze images of samples at high speed and high sensitivity. MCF-7 cells expressing human full-length B7H3 (1.5×10^4 cells/well) were seeded into a 96-well clear bottom black plate pre-coated with 8 μg/mL poly-D-lysine. After incubation in an incubator set to 37° C., 5% CO2 overnight, various concentrations of the antibodies (3.16-fold serially diluted with 1×DPBS/1% BSA from 50 nM to 0.0005 nM) were incubated in a volume of 100 μL/well in a refrigerator set to 4° C. for 2 h. Anti-human B7H3 reference antibody enoblituzumab (MacroGeneics) was used as a positive control. Human IgG1 isotype antibody was used as a negative control. After washing the cells with 1×DPBS/1% BSA, Alexa 647 goat anti-human antibody (diluted in a 1:500 ratio in 1×DPBS/1% BSA) was added. The cells were incubated in a refrigerator set to 4° C. for 1 h in the dark. The cells were then washed once and resuspended in 1×DPBS/1% BSA at 37° C. for 2 h. […] The mean fluorescence intensity (MFI) of the cells was measured and analyzed by operetta CLS. EC50 values were calculated by four-parameter non-linear regression analysis using GraphPad Prism 7 software.

Data on one molecule can be found in patent US20260224723A1, “ANTI-B7H3 ANTIBODY-DRUG CONJUGATE AND USE THEREOF” (Duality Biologics (Suzhou) Co., Ltd., priority 2022, published 2026).

B1: Enoblituzumab (MacroGenics): anti-B7H3 benchmark antibody, sequences SEQ ID NOs: 117 and 119 of US20120294796A1 (antibody, chains of the INN, looked up)
heavy: EVQLVESGGGLVQPGGSLRLSCAASGFTFSSFGMHWVRQAPGKGLEWVAYISSDSSAIYYADTVKGRFTISRDNAKNSLYLQMNSLRDEDTAVYYCGRGRENIYYGSRLDYWGQGTTVTVSSASTKGPSVFPLAPSSKSTSGGTAALGCLVKDYFPEPVTVSWNSGALTSGVHTFPAVLQSSGLYSLSSVVTVPSSSLGTQTYICNVNHKPSNTKVDKRVEPKSCDKTHTCPPCPAPELVGGPSVFLLPPKPKDTLMISRTPEVTCVVVDVSHEDPEVKFNWYVDGVEVHNAKTKPPEEQYNSTLRVVSVLTVLHQDWLNGKEYKCKVSNKALPAPIEKTISKAKGQPREPQVYTLPPSREEMTKNQVSLTCLVKGFYPSDIAVEWESNGQPENNYKTTPLVLDSDGSFFLYSKLTVDKSRWQQGNVFSCSVMHEALHNHYTQKSLSLSPG
light: DIQLTQSPSFLSASVGDRVTITCKASQNVDTNVAWYQQKPGKAPKALIYSASYRYSGVPSRFSGSGSGTDFTLTISSLQPEDFATYYCQQYNNYPFTFGQGTKLEIKRTVAAPSVFIFPPSDEQLKSGTASVVCLLNNFYPREAKVQWKVDNALQSGNSQESVTEQDSKDSTYSLSSTLTLSKADYEKHKVYACEVTHQGLSSPVTKSFNRGEC
In the case of B1, the “Maximum MFI” value with human B7H3 was determined as 4644; in the assay with cynomolgus monkey B7H3 [1], 19700. For the same molecule, the ka with human 2IgB7H3 came to 64400 M⁻¹ s⁻¹; in the assay with cynomolgus monkey B7H3 [2], 185000 M⁻¹ s⁻¹; with human 4IgB7H3, 124000 M⁻¹ s⁻¹. For the same molecule, the kd was 0.0168 s⁻¹ with human 2IgB7H3, 8.14e-05 s⁻¹ on cynomolgus monkey B7H3 [2] and 0.000126 s⁻¹ with human 4IgB7H3. Besides, in assay [3], the “Antibody internalization Maximum MFI” value came to 39777.
